Results on six molecules are retold here after publication PMC3121535 (Journal of molecular biology, 2010).

Where no end group is shown, it is not given here. [ ]: non-standard residue; d: D form. pS = N[C@@H](COP(=O)(O)O)C(=O)O

Series [1] addresses SERCA (sarcoplasmic reticulum calcium ATPase). The series can be described thus: 2D co-crystal frequency, negative-stain EM. Conditions: sites S16.
The series “cryo-EM structure” concerns the molecule itself. Nature of the series: cryo-EM structure.
The series “SDS-PAGE” concerns the molecule itself. The series can be described thus: SDS-PAGE.

As for “phospholamban (PLB) (from UniProt P26678) PKA-phosphorylated wild-type PLB”, the “other: crystals per grid square” value in series [1] (reference: non-phosphorylated wild-type PLB) was “weaker; reference 3.1 ±0.5 (n = 7)”. For the molecule “phospholamban (PLB) (from UniProt P26678) PKA-phosphorylated K27A PLB”, the “other: crystals per grid square” value in series [1] (reference: non-phosphorylated K27A PLB) is “weaker; reference 5 ± 1 (n = 6)”.

B1: wild-type phospholamban (PLB) (natural protein, human, UniProt P26678 1-52, looked up)
chain: MEKVQYLTRSAIRRASTIEMPQQARQKLQNLFINFCLILICLLLICIIVMLL
The stoichiometry N is the number of molecules, sites or subunits per partner or assembly. As to B1, in the series “cryo-EM structure”, the “stoichiometry N” value is 5.

B2: phospholamban gain-of-function mutant Lys27-to-Ala (K27A) (natural protein, human, UniProt P26678 1-52, looked up)
chain: MEKVQYLTRSAIRRASTIEMPQQARQALQNLFINFCLILICLLLICIIVMLL
Take B2: the “stoichiometry N” value in “cryo-EM structure” turned out to be 5.

B3: phosphorylated K27A phospholamban (Ser16, by PKA) (natural protein, human, UniProt P26678 1-52, looked up)
chain: MEKVQYLTRSAIRRA[pS]TIEMPQQARQALQNLFINFCLILICLLLICIIVMLL
modifications: cysteine pairing not given here
For B3, the “stoichiometry N” value in the series “SDS-PAGE” stood at 5.

B4: phosphorylated wild-type phospholamban (Ser16, by PKA) (natural protein, human, UniProt P26678 1-52, looked up)
chain: MEKVQYLTRSAIRRA[pS]TIEMPQQARQKLQNLFINFCLILICLLLICIIVMLL
modifications: cysteine pairing not given here
With B4, the “stoichiometry N” value in the series “cryo-EM structure” came out at 5.
